Target: T1, murine EpCAM recombinant ectodomain (ECD), C-terminally His-Avi tagged (mouse)
T1 construct: also called mu EpCAM; EpCAM ECD
T1 chain: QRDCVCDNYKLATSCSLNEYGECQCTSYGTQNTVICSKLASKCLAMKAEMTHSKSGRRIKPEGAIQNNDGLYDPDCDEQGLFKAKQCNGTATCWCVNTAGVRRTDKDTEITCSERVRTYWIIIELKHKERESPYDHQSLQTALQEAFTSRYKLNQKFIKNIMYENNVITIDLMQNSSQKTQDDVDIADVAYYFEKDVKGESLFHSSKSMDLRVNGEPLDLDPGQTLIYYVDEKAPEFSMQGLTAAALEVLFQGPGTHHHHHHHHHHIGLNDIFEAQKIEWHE
Experiment: SPR (Biacore), antibody captured by anti-mouse IgG, EpCAM ECD as analyte, 37 C
Excerpt: This system is well established for the study of molecule interactions. It allows a continuous real-time monitoring of ligand/analyte bindings and thus the determination of association rate constants (ka), dissociation rate constants (kd), and equilibrium constants (KD) in various assay settings. SPR-technology is based on the measurement of the refractive index close to the surface of a gold coated biosensor chip. Changes in the refractive index indicate mass changes on the surface caused by the interaction of immobilized ligand with analyte injected in solution. If molecules bind to immobilized ligand on the surface the mass increases, in case of dissociation the mass decreases. For capturing, a goat anti-mouse IgG antibody was immobilized on the surface of a CM5 biosensorchip using amine-coupling chemistry according to the manufacturer's instructions. Flow cells were activated with a 1:1 mixture of 0.1 M N-hydroxysuccinimide and 0.4 M 1-ethyl-3-(3-dimethylaminopropyl)-carbodiimide hydrochloride at a flow rate of 5 μl/min at 25° C. Anti-mouse IgG antibody was injected in 10 mM sodium acetate, pH 4.5 at 10 μg/mL. A reference control flow cell was treated in the same way but with vehicle buffers only instead of the capturing antibody. Surfaces were blocked with an injection of 1 M ethanolamine/HCl pH 8.5. […] All interactions were performed at 37° C., using PBS-T as running buffer. The analytes were injected in a series of threefold increasing concentrations (EGFR ECD 4.12-1000 nM and EpCAM ECD 0.91-2000 nM in PBS-T+0.1% BSA) with a flow rate of 50 μl/min, 180 sec association, 1200 sec dissociation. The capture antibody was regenerated after each cycle with 10 mM glycine, pH 2.0 at a flow rate of 30 μl/min for 60 sec. Signals were detected at a rate of one signal per second.

Kd: 61 nM
koff: 0.013 s⁻¹
kon: 220000 M⁻¹ s⁻¹
B1: G8.8 (mouse EpCAM-specific antibody) (antibody, mouse IgG2a, kappa, V domains shown)
VH: EVQLAESGGGLVQPGRSMKLSCAASGFTFSNFPMAWVRQAPTKGLEWVATISTSGGSTYYRDSVKGRFTISRDNAKSTLYLQMNSLRSEDTATYYCTRTLYILRVFYFDYWGQGVMVTVSS
VL: DIQMTQSPASLSASLGETVSIECLASEGISNDLAWYQQKSGKSPQLLIYATSRLQDGVPSRFSGSGSGTRYSLKISGMQPEDEADYFCQQSYKYPWTFGGGTKLELKR
notes: Full heavy and light chains; also called EpCAM G8.8; anti-EpCAM mono-specific antibody

From US20200317806A1 (Hoffmann-La Roche, published 2020)
